The record followed here is US7592168B2, “Cephalosporin C acylase mutant and method for preparing 7-ACA using same” (Sandoz AG, priority 2003, dated 2009).

Substrate in this series: [H][C@]12SCC(COC(C)=O)=C(C(=O)O)N1C(=O)[C@H]2NC(=O)CCC[C@@H](N)C(=O)O
Briefly: CPC hydrolysis kinetics (Lineweaver-Burk plot), wild-type CPC acylase AcyII. The class given is biochemical, Pseudomonas sp. SE83. As to conditions: other: substrate CPC, purified enzyme, 0.1 M Tris-HCl pH 8.0, 37° C. As to the method:
The enzyme activity of CPC acylase mutant to CPC was measured according to the method described by Park et al. with minor modifications as follows (Park, et al., Kor. J. Appl. Microbiol. Biotechnol. 23: 559-564, 1995). A substrate solution was prepared by dissolving CPC (purity 74.2%; CJ Corp., Korea) in 0.1 M Tris-HCl buffer solution (pH 8.0) at a concentration of 20 mg/ml and adjusting pH to 8 with 1 N NaOH. 20 μl of the CPC solution was mixed with 20 μl of the crude enzyme solution prepared above and the reaction mixture was incubated at 37° C. for 5 min. After the reaction, the mixture (200 μl) of 50 mM NaOH and 20% glacial acetic acid (1:2) was added thereto to stop the reaction. 200 μl of the supernatant recovered from the reaction mixture by centrifugation was mixed with 40 μl of 0.5% (w/v) PDAB (p-dimethylaminobenzaldehyde; Sigma, USA) dissolved in a methanol and the reaction mixture was incubated at 37° C. for 10 min. After the reaction, the absorbance of reaction mixture was measured at 415 nm and quantified by comparing with a calibration curve of standard material. At this time, 1 unit has been defined as the amount of enzyme capable to produce 1 μmole of 7-ACA from CPC per minute. Meanwhile, the specific activity of CPC acylase mutant for CPC was determined by measuring the amount of protein remaining in the enzyme solution according to the method described by Bradford (Bradford, M., Anal. Biochem. 72: 248-254, 1976) and representing it as an active unit corresponding to 1 mg of protein. The reactivity of CPC acylase mutant to CPC was determined by the following steps of adding the same amount of protein to a reaction mixture, performing an enzyme reaction for a fixed time, measuring the amount of 7-ACA produced in the reaction mixture, and representing it as a relative value. The end-product inhibition by 7-ACA was determined by adding a protein corresponding to the same active unit to a reaction mixture, performing an enzyme reaction for a fixed time; measuring the amount of 7-ACA produced in the reaction mixture, and representing it as a relative value. […]

B1: Pseudomonas sp. SE83 CPC acylase AcyII, wild type, SEQ ID NO: 2 (alpha-subunit SEQ ID NO: 4, beta-subunit SEQ ID NO: 5) (Pseudomonas sp. SE83) (protein)
chain 1: TMAAKTDREALQAALPPLSGSLSIPGLSAPVRVQRDGWGIPHIKASGEADAYRALGFVHAQDRLFQMELTRRKALGRAAEWLGAEAAEADILVRRLGMEKVCRRDFEALGAEAKDMLRAYVAGVNAFLASGAPLPIEYGLLGAEPEPWEPWHSIAVMRRLGLLMGSVWFKLWRMLALPVVGAANALKLRYDDGGQDLLCIPPGVEAERLEADLAALRPAVDALLKAMGG
chain 2: SNNWAVAPGRTATGRPILAGDPHRVFEIPGMYAQHHLACDRFDMIGLTVPGVPGFPHFAHNGKVAYCVTHAFMDIHDLYLEQFAEDGRTARFGNEFEPVAWRRDRIAVRGGADREFDIVETRHGPVIAGDPLEGAALTLRSVQFAETDLSFDCLTRMPGASTVAQLYDATRGWGLIDHNLVAGDVAGSIGHLVRARVPSRPRENGWLPVPGWSGEHEWRGWIPHEAMPRVIDPPGGLIVTANNRVVADDHPDYLCTDCHPPYRAERIMERLVASPAFAVDDAAAIHADTLSPHVGLLRARLEALGIQGSLPAEELRQTLIAWDGRMDAGSQAASAYNAFRRALTRLVTARSGLEQAIAHPFAAVPPGVSPQGQVWWAVPTLLRNDDAGMLKGWSWDEALSEALSVATQNLTGRGWGEEHRPRFTHPLSAQFPAWAALLNPVSRPIGGDGDTVLANGLVPSAGPEATYGALSRYVFDVGNWDNSRWVVFHGASGHPASPHYADQNAPWSDCAMVPMLYSWDRIAAEAVTSQELVPA
notes: made in house; host or cells: E. coli MC1061
Take B1: the Km (in general, the substrate concentration at which the rate is half of its maximum) stood at 50 mM; the kcat (commonly the number of substrate molecules converted per active site and unit of time at saturation) came out at 0.9 s⁻¹; the kcat/Km (as a rule, the second-order rate constant that governs catalysis at low substrate concentration) was 20 M⁻¹ s⁻¹.
